Results on two molecules are retold here after article PMC4657330, “Rac1 augments Wnt signaling by stimulating β-catenin–lymphoid enhancer factor-1 complex assembly independent of β-catenin nuclear import” (Journal of Cell Science, 2015).

Where a chain is given by its changes, count along the chain named. Names and notes keep the numbering of the source.

This assay addresses T1, HA-tagged LEF-1 (UniProt Q9UJU2 1-399).
T1 construct: LEF-1 (lymphoid enhancer factor 1); written both HA-LEF-1 and LEF-1-HA; also called pHA-LEF-1; HA-LEF-1; source: HEK293, transfected, in lysate; NIH 3T3, transfected, in lysate and in fixed cells
As to the kind of experiment: co-IP; NIH 3T3 lysates, pLEF-1-HA co-transfected with pβ-catenin-myc constructs; IP with HA mAb or isotype control IgG, blot with anti-myc; densitometry over three independent experiments. The note with it: partners not purified.

T1 sequence (Q9UJU2 whole entry): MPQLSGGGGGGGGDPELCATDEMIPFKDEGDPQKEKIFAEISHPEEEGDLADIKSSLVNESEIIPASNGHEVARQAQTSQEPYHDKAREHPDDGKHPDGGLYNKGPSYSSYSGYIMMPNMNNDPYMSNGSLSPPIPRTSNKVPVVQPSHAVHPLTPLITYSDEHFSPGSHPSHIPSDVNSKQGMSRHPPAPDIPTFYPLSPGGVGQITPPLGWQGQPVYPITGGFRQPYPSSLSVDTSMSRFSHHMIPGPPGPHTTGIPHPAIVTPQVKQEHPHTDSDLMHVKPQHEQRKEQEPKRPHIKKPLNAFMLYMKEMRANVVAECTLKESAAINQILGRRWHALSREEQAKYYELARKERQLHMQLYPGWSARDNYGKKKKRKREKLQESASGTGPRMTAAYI

B1: myc-tagged β-catenin S191A (natural protein, UniProt P35222 1-781, looked up)
chain: MATQADLMELDMAMEPDRKAAVSHWQQQSYLDSGIHSGATTTAPSLSGKGNPEEEDVDTSQVLYEWEQGFSQSFTQEQVADIDGQYAMTRAQRVRAAMFPETLDEGMQIPSTQFDAAHPTNVQRLAEPSQMLKHAVVNLINYQDDAELATRAIPELTKLLNDEDQVVVNKAAVMVHQLSKKEASRHAIMRAPQMVSAIVRTMQNTNDVETARCTAGTLHNLSHHREGLLAIFKSGGIPALVKMLGSPVDSVLFYAITTLHNLLLHQEGAKMAVRLAGGLQKMVALLNKTNVKFLAITTDCLQILAYGNQESKLIILASGGPQALVNIMRTYTYEKLLWTTSRVLKVLSVCSSNKPAIVEAGGMQALGLHLTDPSQRLVQNCLWTLRNLSDAATKQEGMEGLLGTLVQLLGSDDINVVTCAAGILSNLTCNNYKNKMMVCQVGGIEALVRTVLRAGDREDITEPAICALRHLTSRHQEAEMAQNAVRLHYGLPVVVKLLHPPSHWPLIKATVGLIRNLALCPANHAPLREQGAIPRLVQLLVRAHQDTQRRTSMGGTQQQFVEGVRMEEIVEGCTGALHILARDVHNRIVIRGLNTIPLFVQLLYSPIENIQRVAAGVLCELAQDKEAAEAIEAEGATAPLTELLHSRNEGVATYAAAVLFRMSEDKPQDYKKRLSVELTSSLFRTEPMAWNETADLGLDIGAQGEPLGYRQDDPSYRSFHSGGYGQDALGMDPMMEHEMGGHHPGADYPVDGLPDLGHAQDLMDGLPPGDSNQLAWFDTDL
notes: from the Long laboratory (Wu et al., 2008); also called pmyc-β-catenin-S191A; source: NIH 3T3, transfected, in lysate and in fixed cells
Take B1: the “reduction in binding relative to β-catenin-WT (densitometry of the co-IP)” value is roughly 20%.

B2: myc-tagged β-catenin S605A (natural protein, UniProt P35222 1-781, looked up)
chain: B1 chain with A191S, S605A
notes: from the Long laboratory (Wu et al., 2008); also called pmyc-β-catenin-S605A; source: NIH 3T3, transfected, in lysate and in fixed cells
Turning to B2, the “reduction in binding relative to β-catenin-WT (densitometry of the co-IP)” value is roughly 50%.
